Reference: the supplement of paper PMC9112550, “Optimization of the antimicrobial peptide Bac7 by deep mutational scanning” (BMC Biology, 2022)

System: Escherichia coli TOP10
Experiment: shrunken log2 fold change of peptide-encoding DNA abundance (4.5 h post-induction vs induction); higher = less antimicrobial activity (less host growth inhibition)
Conditions: time post-induction: 4.5 h; library: site-saturation at positions 5, 18, 19, 20
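Also: peptides expressed intracellularly from a pBAD plasmid library in pooled LB shake-flask culture, induced with 0.3% L-arabinose, DNA abundance read by NGS, three biological replicates, DESeq2 with apeglm shrinkage.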

Sequence	shrunken log2 fold change
RRIRHRPPRLPRPRPRPEPSPRP	0.137
RRIRGRPPRLPRPRPRPMWYPRP	0.293
RRIRWRPPRLPRPRPRPDIAPRP	0.0944
RRIRRRPPRLPRPRPRPDYRPRP	0.0309
RRIRRRPPRLPRPRPRPVRNPRP	0.146
RRIRRRPPRLPRPRPRPAYGPRP	0.286
RRIRFRPPRLPRPRPRPMVWPRP	0.156
RRIRLRPPRLPRPRPRPKDIPRP	-0.23
RRIRQRPPRLPRPRPRPPEFPRP	0.0335
RRIRWRPPRLPRPRPRPIRKPRP	0.636
RRIRARPPRLPRPRPRPVGEPRP	0.482
RRIRERPPRLPRPRPRPGNFPRP	-0.0564
RRIRVRPPRLPRPRPRPYRYPRP	-0.228
RRIRQRPPRLPRPRPRPAFIPRP	-0.239
RRIRLRPPRLPRPRPRPMKLPRP	-0.187
RRIRPRPPRLPRPRPRPVAWPRP	0.225
RRIRWRPPRLPRPRPRPIFAPRP	0.329
RRIRTRPPRLPRPRPRPLTCPRP	-0.809
RRIRDRPPRLPRPRPRPSETPRP	-0.0751
RRIRQRPPRLPRPRPRPDEIPRP	-0.00251
RRIRSRPPRLPRPRPRPFTSPRP	0.0532
RRIRWRPPRLPRPRPRPIRVPRP	0.0983

Sequence	shrunken log2 fold change
RRIRDRPPRLPRPRPRPKIFPRP	-0.0898
RRIRNRPPRLPRPRPRPMTAPRP	-0.167
RRIRSRPPRLPRPRPRPERNPRP	-0.098
RRIRIRPPRLPRPRPRPKAGPRP	0.0458
RRIRWRPPRLPRPRPRPEDKPRP	-0.028
RRIRDRPPRLPRPRPRPRVCPRP	0.372
RRIRARPPRLPRPRPRPYRWPRP	0.0451
RRIRYRPPRLPRPRPRPQEFPRP	-0.00973
RRIRFRPPRLPRPRPRPYNIPRP	-0.181
RRIRKRPPRLPRPRPRPSKPPRP	0.0859
RRIRGRPPRLPRPRPRPTYDPRP	0.361
RRIRQRPPRLPRPRPRPSYTPRP	-1.34
RRIRCRPPRLPRPRPRPWDWPRP	0.313
RRIRSRPPRLPRPRPRPNAGPRP	0.0362
RRIRERPPRLPRPRPRPMAAPRP	0.421
RRIRQRPPRLPRPRPRPRFLPRP	-0.0439
RRIRYRPPRLPRPRPRPIKLPRP	-0.126
RRIRVRPPRLPRPRPRPNPYPRP	-0.376
RRIRDRPPRLPRPRPRPEHCPRP	-0.0205
RRIRIRPPRLPRPRPRPILRPRP	-0.484
RRIRYRPPRLPRPRPRPDRMPRP	-0.566
RRIRYRPPRLPRPRPRPSFSPRP	-0.626

Sequence	shrunken log2 fold change
RRIRPRPPRLPRPRPRPPGPPRP	0.576
RRIRDRPPRLPRPRPRPHDDPRP	0.014
RRIRLRPPRLPRPRPRPYMQPRP	-0.297
RRIRNRPPRLPRPRPRPFQPPRP	-0.0306
RRIRIRPPRLPRPRPRPFFFPRP	-0.0692
RRIRRRPPRLPRPRPRPDYYPRP	-0.0675
RRIRERPPRLPRPRPRPFIYPRP	-0.0998
RRIRSRPPRLPRPRPRPHEIPRP	-0.346
RRIRTRPPRLPRPRPRPSYHPRP	-0.833
RRIRTRPPRLPRPRPRPGTNPRP	-0.0901
RRIRIRPPRLPRPRPRPLPIPRP	-0.0341
RRIRYRPPRLPRPRPRPEPNPRP	-0.0357
RRIRVRPPRLPRPRPRPHLSPRP	-0.301
RRIRHRPPRLPRPRPRPHVWPRP	0.205
RRIRPRPPRLPRPRPRPFTYPRP	-0.0519
RRIRHRPPRLPRPRPRPNWVPRP	-0.126
RRIRVRPPRLPRPRPRPAYYPRP	-0.616
RRIRCRPPRLPRPRPRPDGCPRP	-0.0861
RRIRLRPPRLPRPRPRPHIEPRP	-0.0305
RRIRNRPPRLPRPRPRPVGIPRP	-0.2
RRIRLRPPRLPRPRPRPIKLPRP	-0.515
RRIRVRPPRLPRPRPRPGKFPRP	-0.17

Sequence	shrunken log2 fold change
RRIRCRPPRLPRPRPRPLQTPRP	0.443
RRIRDRPPRLPRPRPRPVCYPRP	-0.0717
RRIRHRPPRLPRPRPRPSYCPRP	0.00287
RRIRKRPPRLPRPRPRPCECPRP	0.62
RRIRRRPPRLPRPRPRPQCNPRP	0.0615
RRIRSRPPRLPRPRPRPYRTPRP	0.00951
RRIRDRPPRLPRPRPRPMGSPRP	0.00408
RRIRERPPRLPRPRPRPYLNPRP	-0.326
RRIRQRPPRLPRPRPRPLCKPRP	-0.406
RRIRIRPPRLPRPRPRPAETPRP	-0.0338
RRIRARPPRLPRPRPRPHTHPRP	-0.175
RRIRTRPPRLPRPRPRPDMHPRP	-0.249
RRIRLRPPRLPRPRPRPKAFPRP	0.0112
RRIRERPPRLPRPRPRPRMPPRP	-0.0437
RRIRVRPPRLPRPRPRPAENPRP	0.15
RRIRCRPPRLPRPRPRPFFDPRP	-0.199
RRIRYRPPRLPRPRPRPNPVPRP	0.000723
RRIRIRPPRLPRPRPRPMDDPRP	0.0135
RRIRGRPPRLPRPRPRPFDSPRP	0.0127
RRIRARPPRLPRPRPRPTVRPRP	0.302
RRIRWRPPRLPRPRPRPNQEPRP	-0.119
RRIRARPPRLPRPRPRPYVNPRP	-0.235

Sequence	shrunken log2 fold change
RRIRYRPPRLPRPRPRPFAQPRP	-0.159
RRIRGRPPRLPRPRPRPWWRPRP	0.626
RRIRGRPPRLPRPRPRPLAWPRP	1.43
RRIRMRPPRLPRPRPRPPQCPRP	0.566
RRIRPRPPRLPRPRPRPWAGPRP	-0.0189
RRIRWRPPRLPRPRPRPDQSPRP	0.0237
RRIRDRPPRLPRPRPRPIMAPRP	-0.00298
RRIRLRPPRLPRPRPRPDKMPRP	-0.121
RRIRGRPPRLPRPRPRPGWTPRP	0.708
RRIRVRPPRLPRPRPRPKKQPRP	0.216
RRIRCRPPRLPRPRPRPFNPPRP	-0.558
RRIRRRPPRLPRPRPRPFRPPRP	0.317
RRIRHRPPRLPRPRPRPLTYPRP	-0.402
RRIRARPPRLPRPRPRPKRQPRP	0.0749
RRIRPRPPRLPRPRPRPFQAPRP	-0.216
RRIRYRPPRLPRPRPRPKSIPRP	-0.0776
RRIRVRPPRLPRPRPRPKWLPRP	0.0936
RRIRIRPPRLPRPRPRPPRHPRP	0.166
RRIRDRPPRLPRPRPRPCPSPRP	0.114
RRIRQRPPRLPRPRPRPKQEPRP	-0.0419
RRIRCRPPRLPRPRPRPIHEPRP	-0.115
